In US20140349928A1 (MEDERIS DIABETES, published 2014):
Non-standard residues stand in square brackets, D forms with d. No end group written: not given here. Aib = CC(C)(N)C(=O)O

Biological target: GLP-1 receptor
Assay: cell-based or functional assay

B1: EU-A391 (peptide)
peptide: H[Aib]QGT[Me‑Phe]TSDYSKYLD[Aib]K-NH2
modifications: not fully specified (residue 17); also: 1-dodecyl beta-D-glucuronyl surfactant on a linker residue
EC50, cAMP generated in cells (GLP-1 cellular assay): 420 nM
